Assay [1] has as its target T1, Hcp peptide IKYLQIKLKHVLVSS (Acinetobacter baumannii).
T1 peptide: IKYLQIKLKHVLVSS
Description: peptide ELISA, peptide on plate, anti-mouse HRP, OD450. (ELISA stands for enzyme-linked immunosorbent assay.)

Assay [2] deals with T2, Hcp peptide DGESRDSEHKGWLEV (Acinetobacter baumannii).
T2 peptide: DGESRDSEHKGWLEV
Described as above.

Assay [3] addresses T3, Hcp peptide LKHVLVSSVTPTVNE (Acinetobacter baumannii).
T3 peptide: LKHVLVSSVTPTVNE
Described as above.

In assay [4] the target is T4, Hcp peptide AFGLKYAAVEWTYNQ (Acinetobacter baumannii).
T4 peptide: AFGLKYAAVEWTYNQ
The description is as above.

For assay [5], the target named is T5, Hcp peptide EEGVPTEAFGLKYAA (Acinetobacter baumannii).
T5 peptide: EEGVPTEAFGLKYAA
The description is as above.

The target in assay [6] is T6, Hcp peptide RANGDKRIKYLQIKL (Acinetobacter baumannii).
T6 peptide: RANGDKRIKYLQIKL
Described as above.

For assay [7], the target named is T7, Hcp peptide EHKGWLEVNSWSHN (Acinetobacter baumannii).
T7 peptide: EHKGWLEVNSWSHN
Described as above.

The target of assay [8] is T8, Hcp peptide #1 MKDIYVEFRGKYKVD (Acinetobacter baumannii).
T8 construct: also called amino terminus peptide; N-terminus peptide
T8 peptide: MKDIYVEFRGKYKVD
The description is as above.

Assay [9] addresses T9, Hcp peptide IRQPKSATSSSVGGH (Acinetobacter baumannii).
T9 peptide: IRQPKSATSSSVGGH
The description is as above.

Assay [10] has as its target T10, Hcp peptide SAGYTFDEVQIDFYR (Acinetobacter baumannii).
T10 peptide: SAGYTFDEVQIDFYR
The description is as above.

For assay [11], the target named is T11, Hcp peptide EVQIDFYRANGDKRI (Acinetobacter baumannii).
T11 peptide: EVQIDFYRANGDKRI
Described as above.

In assay [12] the target is T12, Hcp peptide QQDINGTAKGAVTKK (Acinetobacter baumannii).
T12 peptide: QQDINGTAKGAVTKK
Described as above.

The target in assay [13] is T13, Hcp peptide SVTPTVNEEGVPTEA (Acinetobacter baumannii).
T13 peptide: SVTPTVNEEGVPTEA
The assay is described as above.

For assay [14], the target named is T14, Hcp peptide KWSLSNNTASYAA (Acinetobacter baumannii).
T14 peptide: KWSLSNNTASYAA
Described as above.

The target in assay [15] is T15, Hcp peptide AKGAVTKKWSLSNNT (Acinetobacter baumannii).
T15 peptide: AKGAVTKKWSLSNNT
Described as above.

Assay [16] concerns the target T16, Hcp peptide HSDMVFVKDLDATSP (Acinetobacter baumannii).
T16 peptide: HSDMVFVKDLDATSP
Described as above.

The target of assay [17] is T17, Hcp peptide FRGKYKVDGESRDSE (Acinetobacter baumannii).
T17 peptide: FRGKYKVDGESRDSE
Described as above.

Assay [18] has as its target T18, Hcp peptide PKLWEACSAGYTFDE (Acinetobacter baumannii).
T18 peptide: PKLWEACSAGYTFDE
Described as above.

Assay [19] concerns the target T19, Hcp peptide TSSSVGGHTAERVEH (Acinetobacter baumannii).
T19 peptide: TSSSVGGHTAERVEH
The description is as above.

Assay [20] has as its target T20, Hcp peptide HTAERVEHSDMVFVK (Acinetobacter baumannii).
T20 peptide: HTAERVEHSDMVFVK
The description is as above.

Assay [21] addresses T21, Hcp peptide KDLDATSPKLWEACS (Acinetobacter baumannii).
T21 peptide: KDLDATSPKLWEACS
Described as above.

The target in assay [22] is T22, Hcp peptide AVEWTYNQQDINGTA (Acinetobacter baumannii).
T22 peptide: AVEWTYNQQDINGTA
The assay is described as above.

The target of assay [23] is T23, Hcp peptide VNSWSHNIRQPKSAT (Acinetobacter baumannii).
T23 peptide: VNSWSHNIRQPKSAT
Described as above.

Assay [24] addresses T24, Hcp (hemolysin co-regulated protein, T6SS needle protein) of Acinetobacter baumannii AB5075, recombinant, … (Acinetobacter baumannii (strain AB5075)).
T24 construct: Cloned NcoI/XhoI into pET22b, overexpressed in E. coli and purified on a nickel column; also called full-length Hcp protein; purified Hcp protein
T24 chain: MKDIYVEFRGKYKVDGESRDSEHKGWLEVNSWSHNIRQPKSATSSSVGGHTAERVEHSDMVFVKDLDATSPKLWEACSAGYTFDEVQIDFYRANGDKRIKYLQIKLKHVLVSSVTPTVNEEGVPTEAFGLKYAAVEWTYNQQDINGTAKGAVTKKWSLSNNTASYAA
Nature of the assay: screening of hybridoma clones for binding to Hcp antigen.

B1: 13F7 anti-Hcp monoclonal antibody (antibody, V domains shown)
VH: EVQLQESGGGLVQPGGSMKLSCVVSGFIFSSYWMSWVRQSPEKGLEWLAEIRLKSDNYVTLYAESVKGKFTISRDDSKSRLFLQMNTLRAEDTGIYYCTRSYHALDYWGQGTSVTVSS
VL: DIVMAQSPSSLNVSAGDKVTMSCKSSQSLLNSGNQRNYLAWYQQKPGQPPKLLIYGASTRESGVPDRFTGSGSGTDFTLTISSVQAEDLAVYYCQNDHIYPFTFGSGTKLEIK
notes: Mouse monoclonal antibody from a hybridoma; also called αHcp; 13F7 αHcp antibody
As for B1, the binding result in [1], in [2], in assay [3], in assay [4], in assay [5] and in [6] was “no binding” throughout. Also, the binding result in assay [7] was “no binding”; in [8], “binds”; in assay [9], “no binding”; in [10], “no binding”; in assay [11], “no binding”; in [12], “no binding”. Moreover, the binding result in assay [13], in [14], in [15], in assay [16], in assay [17] and in [18] was “no binding” each time. Besides, the binding result is “no binding” in [19]; “no binding” in assay [20]; “no binding” in assay [21]; “no binding” in assay [22]; “no binding” in [23]; “binds” in assay [24].
